Patent US20130274124A1

Legend:
Assay in all cases: cell-based or functional assay
[1] = biological target: collagen II/galectin-4 (hit ECM combination) (human) (UniProt P02458)
[2] = biological target: collagen I/laminin (hit ECM combination) (human) (UniProt P02452)
[3] = biological target: collagen IV/galectin-8 (hit ECM combination) (human) (UniProt P02462)
Chain of collagen IV/galectin-8 (hit ECM combination) (human) (P02462 173-1669 P555T limits assumed, chain 1 of 2): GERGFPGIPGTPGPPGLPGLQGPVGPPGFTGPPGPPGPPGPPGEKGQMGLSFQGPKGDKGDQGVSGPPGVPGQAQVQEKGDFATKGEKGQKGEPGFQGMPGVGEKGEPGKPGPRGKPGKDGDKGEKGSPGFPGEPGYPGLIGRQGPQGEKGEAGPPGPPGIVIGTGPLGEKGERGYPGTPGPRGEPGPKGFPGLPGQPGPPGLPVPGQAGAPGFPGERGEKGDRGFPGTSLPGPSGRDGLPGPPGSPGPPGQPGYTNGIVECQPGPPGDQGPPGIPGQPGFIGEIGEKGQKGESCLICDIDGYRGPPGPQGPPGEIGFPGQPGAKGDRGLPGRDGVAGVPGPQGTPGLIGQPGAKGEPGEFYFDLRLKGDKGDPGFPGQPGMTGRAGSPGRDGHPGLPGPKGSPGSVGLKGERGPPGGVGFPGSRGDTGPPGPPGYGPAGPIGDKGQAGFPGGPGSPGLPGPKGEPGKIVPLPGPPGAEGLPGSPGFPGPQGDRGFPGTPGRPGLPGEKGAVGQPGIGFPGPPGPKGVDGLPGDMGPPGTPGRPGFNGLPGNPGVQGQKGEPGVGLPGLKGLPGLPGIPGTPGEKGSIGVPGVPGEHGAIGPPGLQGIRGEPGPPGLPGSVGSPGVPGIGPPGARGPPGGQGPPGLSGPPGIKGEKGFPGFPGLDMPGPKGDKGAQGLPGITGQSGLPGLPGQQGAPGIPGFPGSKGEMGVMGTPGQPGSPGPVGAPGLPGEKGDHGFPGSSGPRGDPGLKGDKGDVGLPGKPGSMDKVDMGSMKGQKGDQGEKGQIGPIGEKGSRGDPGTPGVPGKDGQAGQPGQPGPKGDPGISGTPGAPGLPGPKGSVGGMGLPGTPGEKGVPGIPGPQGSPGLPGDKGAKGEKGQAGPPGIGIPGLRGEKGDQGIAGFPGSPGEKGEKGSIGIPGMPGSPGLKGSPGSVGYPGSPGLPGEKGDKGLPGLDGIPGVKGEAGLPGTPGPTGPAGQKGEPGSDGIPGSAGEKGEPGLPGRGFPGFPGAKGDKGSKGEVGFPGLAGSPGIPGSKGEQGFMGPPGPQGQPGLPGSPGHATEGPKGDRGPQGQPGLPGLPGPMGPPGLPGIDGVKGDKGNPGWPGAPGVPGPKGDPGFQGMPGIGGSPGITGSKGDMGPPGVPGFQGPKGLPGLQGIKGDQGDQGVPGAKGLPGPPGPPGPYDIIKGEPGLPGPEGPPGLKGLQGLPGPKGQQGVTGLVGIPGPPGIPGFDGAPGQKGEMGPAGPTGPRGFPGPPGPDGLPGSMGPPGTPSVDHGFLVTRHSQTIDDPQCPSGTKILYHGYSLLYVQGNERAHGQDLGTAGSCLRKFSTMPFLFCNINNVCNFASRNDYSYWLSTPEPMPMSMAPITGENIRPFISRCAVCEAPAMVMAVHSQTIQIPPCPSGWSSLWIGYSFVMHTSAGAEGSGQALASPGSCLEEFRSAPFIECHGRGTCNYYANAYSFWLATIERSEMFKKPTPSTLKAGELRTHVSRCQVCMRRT
Chain of collagen IV/galectin-8 (hit ECM combination) (human) (chain, as listed by the source limits assumed, chain 2 of 2): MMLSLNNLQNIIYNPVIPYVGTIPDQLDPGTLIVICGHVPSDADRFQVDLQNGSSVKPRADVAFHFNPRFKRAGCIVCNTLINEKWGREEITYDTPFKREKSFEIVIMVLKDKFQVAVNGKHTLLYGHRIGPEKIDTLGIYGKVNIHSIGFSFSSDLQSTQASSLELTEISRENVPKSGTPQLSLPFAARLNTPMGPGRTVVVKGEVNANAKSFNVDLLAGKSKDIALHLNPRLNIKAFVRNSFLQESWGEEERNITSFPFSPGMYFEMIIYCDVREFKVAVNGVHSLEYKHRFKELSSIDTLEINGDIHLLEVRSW

Chain of collagen I/laminin (hit ECM combination) (human) (P02452 162-1218 limits assumed, chain 1 of 2): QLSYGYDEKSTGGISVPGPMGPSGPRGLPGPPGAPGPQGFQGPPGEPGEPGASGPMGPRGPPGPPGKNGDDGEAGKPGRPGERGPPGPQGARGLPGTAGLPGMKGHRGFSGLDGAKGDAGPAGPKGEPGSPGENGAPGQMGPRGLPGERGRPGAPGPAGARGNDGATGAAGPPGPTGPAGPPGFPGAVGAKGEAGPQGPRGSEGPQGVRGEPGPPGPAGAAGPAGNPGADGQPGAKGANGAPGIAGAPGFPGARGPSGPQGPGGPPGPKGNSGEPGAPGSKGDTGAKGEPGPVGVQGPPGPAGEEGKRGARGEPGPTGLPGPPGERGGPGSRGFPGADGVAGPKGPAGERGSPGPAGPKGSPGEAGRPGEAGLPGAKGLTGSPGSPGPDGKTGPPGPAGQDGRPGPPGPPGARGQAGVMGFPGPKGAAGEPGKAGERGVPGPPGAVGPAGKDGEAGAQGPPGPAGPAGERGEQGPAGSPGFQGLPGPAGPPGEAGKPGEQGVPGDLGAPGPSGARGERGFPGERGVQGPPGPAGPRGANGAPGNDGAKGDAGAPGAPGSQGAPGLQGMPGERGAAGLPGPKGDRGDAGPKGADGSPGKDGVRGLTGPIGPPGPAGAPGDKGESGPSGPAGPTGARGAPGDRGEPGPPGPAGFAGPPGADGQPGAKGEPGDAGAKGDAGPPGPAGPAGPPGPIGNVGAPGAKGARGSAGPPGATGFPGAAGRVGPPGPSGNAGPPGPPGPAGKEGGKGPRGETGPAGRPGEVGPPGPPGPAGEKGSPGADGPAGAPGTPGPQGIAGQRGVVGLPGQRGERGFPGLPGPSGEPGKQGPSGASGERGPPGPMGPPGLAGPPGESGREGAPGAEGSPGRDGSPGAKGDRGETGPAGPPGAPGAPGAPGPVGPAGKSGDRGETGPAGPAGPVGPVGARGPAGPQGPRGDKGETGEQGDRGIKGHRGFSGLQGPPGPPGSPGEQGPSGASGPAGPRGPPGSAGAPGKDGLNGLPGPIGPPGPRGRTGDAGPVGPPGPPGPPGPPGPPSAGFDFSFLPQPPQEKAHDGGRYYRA
Chain of collagen I/laminin (hit ECM combination) (human) (chain, as listed by the source limits assumed, chain 2 of 2): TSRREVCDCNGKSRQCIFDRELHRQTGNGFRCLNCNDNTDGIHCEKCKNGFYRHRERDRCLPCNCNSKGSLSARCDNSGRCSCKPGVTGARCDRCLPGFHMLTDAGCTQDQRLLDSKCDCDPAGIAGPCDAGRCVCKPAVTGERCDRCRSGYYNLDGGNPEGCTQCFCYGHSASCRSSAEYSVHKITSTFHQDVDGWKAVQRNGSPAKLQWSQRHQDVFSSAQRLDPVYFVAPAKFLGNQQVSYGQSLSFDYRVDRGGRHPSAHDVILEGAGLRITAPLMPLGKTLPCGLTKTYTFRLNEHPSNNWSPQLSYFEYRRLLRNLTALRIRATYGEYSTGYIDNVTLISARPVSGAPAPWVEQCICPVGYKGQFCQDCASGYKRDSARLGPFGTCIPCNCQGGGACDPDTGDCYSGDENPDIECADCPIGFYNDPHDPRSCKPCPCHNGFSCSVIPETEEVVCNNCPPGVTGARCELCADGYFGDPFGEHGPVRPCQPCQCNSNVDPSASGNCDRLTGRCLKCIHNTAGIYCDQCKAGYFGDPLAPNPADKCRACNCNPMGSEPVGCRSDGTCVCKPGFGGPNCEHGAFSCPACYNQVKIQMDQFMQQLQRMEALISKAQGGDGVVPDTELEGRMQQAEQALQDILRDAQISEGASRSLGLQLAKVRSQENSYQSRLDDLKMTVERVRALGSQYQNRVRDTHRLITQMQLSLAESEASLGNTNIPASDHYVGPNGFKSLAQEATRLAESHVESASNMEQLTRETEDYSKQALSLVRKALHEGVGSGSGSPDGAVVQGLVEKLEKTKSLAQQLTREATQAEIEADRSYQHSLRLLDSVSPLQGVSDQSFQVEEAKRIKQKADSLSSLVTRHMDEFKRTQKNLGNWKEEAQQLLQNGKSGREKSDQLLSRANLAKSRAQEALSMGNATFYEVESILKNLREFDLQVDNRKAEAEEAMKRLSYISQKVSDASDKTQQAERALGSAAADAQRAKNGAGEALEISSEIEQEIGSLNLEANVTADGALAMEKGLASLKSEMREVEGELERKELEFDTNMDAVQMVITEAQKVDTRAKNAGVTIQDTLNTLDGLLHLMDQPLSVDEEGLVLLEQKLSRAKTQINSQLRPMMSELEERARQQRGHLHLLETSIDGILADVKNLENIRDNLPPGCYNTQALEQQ

reduction of cellular attachment after blocking the integrin with an antibody [1]: 50%
reduction of cellular attachment after blocking the integrin with an antibody [2]: 50%
reduction of cellular attachment after blocking the integrin with an antibody [3]: 50%
Substance: α1 integrin (from UniProt P56199 29-1179) (receptor)
